Positions count from the first letter of the chain named. Numbers in names are those of the source.

Test in all cases: ITC
In general terms: ITC needs no label: the signal is the heat of the interaction.

Assay [1] concerns the target NapA signal peptide (Escherichia coli) (UniProt P33937). As to conditions: cited from earlier work.
Assay [2] deals with ϕMalE-NapAsp^His R6Q (E. coli).
Assay [3] addresses ϕMalE-NapAsp^His M9Q (E. coli).
Assay [4] addresses ϕMalE-NapAsp^His K10Q (E. coli).
Assay [5] has as its target ϕMalE-NapAsp^His (E. coli).
Assay [6] has as its target ϕMalE-NapAsp^His A17Q variant (E. coli).

Broadly, the Kd is the constant that tells how readily two partners part at equilibrium. Regarding NapD (from UniProt P0A9I5), in assay [1], the dissociation constant Kd is 7 nM.

B1: NapD^His (natural protein)
chain: MHTNWQVCSLVVQAKSERISDISTQLNAFPGCEVAVSDAPSGQLIVVVEAEDSETLIQTIESVRNVEGVLAVSLVYHQQEEQGEETP
By stoichiometry N is commonly meant the number of molecules, sites or subunits per partner or assembly. In assay [2], B1 yielded a Kd of 725 nM and a stoichiometry N of 0.6. In assay [3], this molecule gave a Kd, population 1 (two sites) of 1 nM; a Kd, population 2 (two sites) of 75 nM; a N, population 1 (two sites) of 0.13; a N, population 2 (two sites) of 0.65. In assay [4], this molecule yielded a Kd of 1300 nM and a stoichiometry N of 0.33. For the same molecule, in assay [5], the Kd, population 1 (two sites) came to 3 nM; the Kd, population 2 (two sites) was 143 nM; the N, population 1 (two sites) came to 0.35; the N, population 2 (two sites) came to 0.64. For the same molecule, in assay [6], the Kd worked out at 1100 nM and the stoichiometry N amounted to 0.16.

B2: NapD I19F/T59I (NapD^His variant) (natural protein)
chain: B1 chain with I19F, T59I
In assay [5], B2 had an equilibrium dissociation constant (Kd) of 935 nM and a stoichiometry N of 0.39. In assay [6], the Kd, population 1 (two sites) amounted to 22 nM; the Kd, population 2 (two sites) is 261 nM; the N, population 1 (two sites) amounted to 0.25; the N, population 2 (two sites) was found to be 0.65.

B3: NapD A14T/A71T (NapD^His variant) (natural protein)
chain: B1 chain with A14T, A71T
For B3, in assay [5], the Kd was determined as 571 nM and the stoichiometry N was 0.91. In assay [6], the Kd, population 1 (two sites) was 12 nM; the Kd, population 2 (two sites) is 218 nM; the N, population 1 (two sites) worked out at 0.3; the N, population 2 (two sites) stood at 0.69.

B4: NapD A14T (NapD^His variant) (natural protein)
chain: B1 chain with A14T
In assay [5], B4 displayed a Kd of 763 nM and a stoichiometry N of 0.7. This molecule also showed a Kd in assay [6] of 1870 nM.

B5: NapD I19F (NapD^His variant) (natural protein)
chain: B1 chain with I19F
In assay [5], B5 had a Kd of 806 nM and a stoichiometry N of 0.97. In assay [6], this molecule returned a Kd, population 1 (two sites) of 14 nM; a Kd, population 2 (two sites) of 704 nM; a N, population 1 (two sites) of 0.29; a N, population 2 (two sites) of 0.62.

B6: NapD T59I (NapD^His variant) (natural protein)
chain: B1 chain with T59I
Turning to B6, in assay [5], the Kd turned out to be 328 nM and the stoichiometry N was determined as 0.81. In assay [6], this molecule showed a Kd of 633 nM and a stoichiometry N of 0.57.

B7: NapD A71T (NapD^His variant) (natural protein)
chain: B1 chain with A71T
Consider B7, for which the Kd in assay [5] was found to be 313 nM; in assay [6], 833 nM. The stoichiometry N in assay [5] turned out to be 0.83; in assay [6], 1.11.
